Where a chain is given by its changes, count along the chain named. Names may count otherwise.
B1: WT SETD7: wild type histone-lysine N-methyltransferase SETD7, full length (SEQ ID NO: 37) (protein)
chain: MDSDDEMVEEAVEGHLDDDGLPHGFCTVTYSSTDRFEGNFVHGEKNGRGKFFFFDGSTLEGYYVDDALQGQGVYTYEDGGVLQGTYVDGELNGPAQEYDTDGRLIFKGQYKDNIRHGVCWIYYPDGGSLVGEVNEDGEMTGEKIAYVYPDERTALYGKFIDGEMIEGKLATLMSTEEGRPHFELMPGNSVYHFDKSTSSCISTNALLPDPYESERVYVAESLISSAGEGLFSKVAVGPNTVMSFYNGVRITHQEVDSRDWALNGNTLSLDEETVIDVPEPYNHVSKYCASLGHKANHSFTPNCIYDMFVHPRFGPIKCIRTLRAVEADEELTVAYGYDHSPPGKSGPEAPEWYQVELKAFQATQQK
B2: S345: SETD7 mutant, Ser345 mutated to alanine (phospho-disrupting mutation) (protein, UniProt Q8WTS6 1-366, looked up, variant S345A)
Histone-lysine …: B1 chain with S345A
B3: SETD7 T332A: SETD7 mutant, Thr332 mutated to alanine; cannot be phosphorylated (protein)
chain: B1 chain with T332A
B4: SETD7 S340A: SETD7 mutant, Ser340 mutated to alanine; cannot be phosphorylated (protein)
chain: B1 chain with S340A
B5: S225A: SETD7 mutant, Ser225 mutated to alanine (phospho-disrupting mutation) (protein)
chain: B1 chain with S225A
B6: Y305A: SETD7 mutant, Tyr305 mutated to alanine (phospho-disrupting mutation) (protein)
chain: B1 chain with Y305A
B7: SETD7 H297A/T332E/S340D/S345D: catalytically inert phospho-mimicking SETD7 mutant due to the H297A mutation (protein)
chain: B1 chain with H297A, T332E, S340D, S345D
B8: SETD7 S340D: SETD7-GFP mutant with phospho-mimicking substitution S340D (protein, UniProt Q8WTS6 1-366, looked up, variant S340D)
Histone-lysine …: B1 chain with S340D
modifications: GFP tag
B9: SETD7 T332E/S340D/S345D: SETD7-GFP mutant with three phospho-mimicking substitutions (protein, UniProt Q8WTS6 1-366, looked up, variant T332E S340D S345D)
Histone-lysine …: B1 chain with T332E, S340D, S345D
modifications: GFP tag
notes: SETD7-GFP mutant with three phospho-mimicking substitutions
B10: SETD7 T332E: SETD7-GFP mutant with phospho-mimicking substitution T332E (protein, UniProt Q8WTS6 1-366, looked up, variant T332E)
Histone-lysine …: B1 chain with T332E
modifications: GFP tag
B11: H297A: SETD7 mutant protein with H297A mutation, abolishes methyltransferase activity (protein)
chain: B1 chain with H297A
B12: Y245A: SETD7 substitution mutant at position 245 (protein)
chain: B1 chain with Y245A
B13: Q354A: SETD7 substitution mutant at position 354 (protein)
chain: B1 chain with Q354A
B14: E356A: SETD7 substitution mutant at position 356 (protein)
chain: B1 chain with E356A
B15: Q361A: SETD7 substitution mutant at position 361 (protein)
chain: B1 chain with Q361A
B16: K366A: SETD7 substitution mutant at position 366 (protein)
chain: B1 chain with K366A
B17: W352A: SETD7 substitution mutant at position 352 (protein)
chain: B1 chain with W352A
B18: K358A: SETD7 substitution mutant at position 358 (protein)
chain: B1 chain with K358A
B19: E351A: SETD7 substitution mutant at position 351 (protein)
chain: B1 chain with E351A
B20: Q365A: SETD7 substitution mutant at position 365 (protein)
chain: B1 chain with Q365A
B21: Y353A: SETD7 substitution mutant at position 353 (protein)
chain: B1 chain with Y353A
B22: K294A: SETD7 substitution mutant at position 294 (protein)
chain: B1 chain with K294A
B23: E254A: SETD7 substitution mutant at position 254 (protein)
chain: B1 chain with E254A
B24: N302A: SETD7 substitution mutant at position 302 (protein)
chain: B1 chain with N302A
B25: D270A: SETD7 substitution mutant at position 270 (protein)
chain: B1 chain with D270A
B26: Y335A: SETD7 substitution mutant at position 335 (protein)
chain: B1 chain with Y335A
B27: E330A: SETD7 substitution mutant at position 330 (protein)
chain: B1 chain with E330A
B28: N296A: SETD7 substitution mutant at position 296 (protein)
chain: B1 chain with N296A
B29: E329A: SETD7 substitution mutant at position 329 (protein)
chain: B1 chain with E329A

tested on: human retinal pigment epithelial cells (RPE); test: Nuclear translocation of SETD7 alanine (phospho-disrupting) mutants in response to high glucose levels; assay type: cell-based; details: mutants expressed in human RPE cells; FIG. 3
Text: To identify the potential role of phosphorylatable sites located in the C-terminal regions of SETD7 (FIG. 1), phosphorylatable serines, threonines and tyrosines at positions 225, 305, 332, 340, and 345 where mutated to alanine (phospho-disrupting mutations) and expressed in human retinal pigment epithelial cells (RPE). Nuclear translocation or lack thereof in response to high glucose levels was examined (FIG. 2).
SETD7 cellular distribution changed in response to changes in glucose levels for wild type SETD7 (WT) and SETD7 mutants comprising a S225A substitution or a Y305A substitutions.

Molecule | nuclear translocation in response to changes in glucose
B1 | translocated normally to the nucleus
B2 | did not translocate to the nucleus
B3 | did not translocate to the nucleus
B4 | did not translocate to the nucleus
B5 | translocated normally to the nucleus
B6 | translocated normally to the nucleus

tested on: human retinal pigment epithelial (RPE) cells; test: Cellular distribution of SETD7-GFP mutants under low or high glucose (GFP fluorescence); assay type: cell-based; details: SETD7-GFP mutants in human RPE cells; low glucose and high glucose conditions; FIG. 4
Method: SETD7-GFP mutants with phospho-mimicking substitutions at positions 332, 340 and/or 345 were prepared. The phospho-mimicking substitutions were T332E, S340D, and/or S345D. The SETD7-GFP mutants were expressed in human retinal pigment epithelial (RPE) cells. The fluorescence intensity emitted from the GFP signal in the cells under high or low glucose condition was measured.

Molecule | translocation to the nucleus
B3 | not translocated to the nucleus
B7 | translocated to the nucleus
B4 | not translocated to the nucleus
B8 | translocated to the nucleus
B9 | translocated to the nucleus
B10 | translocated to the nucleus

tested on: histone; test: not given; details: His297 mutation; cited from earlier work

Molecule | methyltransferase activity (enzymatic activity)
B11 | abolishes

same assay, conditions: SETD7 substitution mutants; cited from earlier work

Molecule | monomethyl transferase activity
B12 | significantly reduces
B13 | partial loss
B14 | partial loss
B15 | partial loss
B16 | partial loss
B17 | complete loss
B18 | partial loss
B19 | partial loss
B20 | partial loss
B21 | complete loss

same assay, conditions: cited from earlier work

Molecule | dimethyltransferase activity | catalytic activity (e.g., monomethyl transferase activity)
B12 | increases | –
B22 | – | reduces

same assay, conditions: mutagenic studies on SETD7; cited from earlier work

Molecule | histone monomethyl transferase activity
B12 | partial or complete loss
B23 | partial or complete loss
B24 | partial or complete loss
B25 | partial or complete loss
B11 | partial or complete loss
B26 | partial or complete loss
B27 | partial or complete loss
B28 | partial or complete loss
B29 | partial or complete loss

— patent US20230220007A1, “SETD7 EPIGENETIC MODULATORS” (Biorchestra Co., Ltd., priority 2020, published 2023)
